Where a chain is given by its changes, count along the chain named.

One may read the EC50 as the concentration that produces a half-maximal response. A high value points to a need for much substance.

For assay [1], the target named is T1, human CD40 (cellular) (human, UniProt P25942 21-277). The assay can be described thus: flow cytometry; CD40-transfected HEK-293 cells.
Assay [2] has as its target T1, human CD40 (cellular). Put plainly: flow cytometry; RAMOS cells; humanized per legend.
Target sequence in this assay (P25942 21-277): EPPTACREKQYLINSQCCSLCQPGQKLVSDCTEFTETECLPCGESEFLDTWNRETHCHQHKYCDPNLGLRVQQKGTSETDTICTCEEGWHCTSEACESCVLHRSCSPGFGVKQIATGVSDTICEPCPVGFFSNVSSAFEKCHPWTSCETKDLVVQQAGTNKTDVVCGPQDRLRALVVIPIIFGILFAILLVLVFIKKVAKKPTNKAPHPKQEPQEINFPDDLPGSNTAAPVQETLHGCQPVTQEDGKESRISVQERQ
Assay [3] has as its target T1, human CD40 (cellular). The assay can be described thus: flow cytometry; CD40-transfected HEK-293 cells; humanized 19B10. In general terms: Flow cytometry measures light scatter and fluorescence of single cells or particles in a stream.
Assay [4] has as its target T1, human CD40 (cellular). The assay can be described thus: flow cytometry; CD40-transfected HEK-293 cells; humanized 10F2.
Assay [5] deals with B cells Human (human, UniProt P25942 21-277). The assay can be described thus: flow cytometry, whole blood; human B cells.
Assay [6] concerns the target Platelets Human (human, UniProt P25942 21-277). Put plainly: flow cytometry, whole blood; human platelets.
Assay [7] concerns the target T2, B cells Cynomolgus (cynomolgus monkey, UniProt G7PG38 21-278).
T2 chain: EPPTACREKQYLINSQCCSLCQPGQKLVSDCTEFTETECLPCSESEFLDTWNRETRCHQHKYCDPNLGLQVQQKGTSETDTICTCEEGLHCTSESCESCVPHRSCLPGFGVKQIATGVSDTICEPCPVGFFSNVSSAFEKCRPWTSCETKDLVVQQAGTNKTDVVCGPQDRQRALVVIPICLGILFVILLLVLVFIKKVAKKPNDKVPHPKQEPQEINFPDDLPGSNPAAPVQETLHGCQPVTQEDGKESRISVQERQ
The assay can be described thus: flow cytometry, whole blood; cynomolgus B cells.

Assay [8] has as its target T3, Platelets Cynomolgus (cynomolgus monkey, UniProt G7PG38 21-278).
T3 chain: T2 chain
The assay can be described thus: flow cytometry, whole blood; cynomolgus platelets.

B1: Antibody C (antibody, V domains shown)
VH: QVQLVQSGAEVKKPGASVKVSCTASGFNIKDYYVHWVKQAPGQGLEWMGRIDPEDGDSKYAPKFQGKATMTADTSTSTVYMELSSLRSEDTAVYYCTTSYYVGTYGYWGQGTLVTVSS
VL: DIQMTQSPSSLSASVGDRVTITCSASSSVSYMLWFQQKPGKAPKLLIYSTSNLASGVPSRFSGSGSGTDFTLTISSLQPEDFATYYCQQRTFYPYTFGGGTKVEIKR
Turning to B1, in assay [1], it took 1.9 nM to reach a half-maximal effect (EC50). In other words, the single-digit nanomolar range.

B2: 19B10 (antibody, V domains shown)
VH: EVQLQQSGAELVRPGASVQLSCTASGFNIKDYYVHWVKQRPEKGLEWIGRIDPEDGDTKFAPKFQGKATMTADTSSNTVYLHLSSLTSEDTAVYYCTTSYYVGTYGYWGQGTTLTVSS
VL: QIVLTQSPAIMSASPGEKVTITCSASSSVSYMLWFQQKPGTSPKLWIYSTSNLASGVPARFSGSGSGTSYSLTISRMEAEDAATYYCQQRTFYPYTFGGGTKLEIK
Take B2: the results for the EC50 in assay [2] and in assay [3] were 0.36 nM and 1.1 nM, respectively.

B3: 10F2 (antibody, V domains shown)
VH: B2 VH with Q19K, V34I, F60Y, A61D, V79A
VL: B2 VL with A9T, T20I, S26T, M32I, T68A
For B3, the results for the EC50 in assay [2] and in assay [4] were 0.21 nM and 1.9 nM, respectively.

B4: 2H11 (antibody, V domains shown)
VH: B2 VH with Q19K, T58S, F60Y, V79A
VL: B2 VL with S62G
The molecule B4 displayed an EC50 in assay [2] of 0.32 nM.

B5: 4D11 (antibody, V domains shown)
VH: QLQLQESGPGLLKPSETLSLTCTVSGGSISSPGYYGGWIRQPPGKGLEWIGSIYKSGSTYHNPSLKSRVTISVDTSKNQFSLKLSSVTAADTAVYYCTRPVVRYFGWFDPWGQGTLVTVSS
VL: AIQLTQSPSSLSASVGDRVTITCRASQGISSALAWYQQKPGKAPKLLIYDASNLESGVPSRFSGSGSGTDFTLTISSLQPEDFATYYCQQFNSYPTFGQGTKVEIK
Take B5: the EC50 in assay [5] came out at 0.3 nM; in assay [6], 0.7 nM; in assay [7], 0.7 nM; in assay [8], 1.2 nM.

B6: Antibody A (antibody, V domains shown)
VH: EVQLVESGGGLVKPGGSLRLSCAASGFTFSDYGMHWVRQAPGKGLEWVAYISSGNRIIYYADTVKGRFTISRDNAKNSLYLQMNSLRAEDTALYYCARQDGYRYAMDYWAQGTLVTVSS
VL: DIVMTQSPDSLAVSLGERATMSCKSSQSLLNSGNQKNYLTWHQQKPGQPPKLLIYWTSTRESGVPDRFSGSGSGTDFTLTISSLQAEDVAVYYCQNDYTYPLTFGGGTKVEIKR
On to B6, for which, in assay [1], the EC50 is 1.1 nM.

B7: 20E2 (antibody, V domains shown)
VH: B6 VH with L18R, R19K, G42E, S78T, Y80F, N84T, A88S, A110G, L114S
VL: DIVMTQSPSSLTVTAGEKVTMSCKSSQSLLNSGNQKNYLTWHQQKPGQPPKLLIYWTSTRESGVPDRFTGSGSGTDFTLTISNLQAEDLAVYYCQNDYTYPLTFGAGTKLELK
As to B7, in assay [2], the midpoint of the response, the EC50, lay at 1.22 nM. That is a single-digit nanomolar value.

The values are drawn from patent US20160222124A1 (published 2016).
